Measurements published in patent publication US20160324962A1, “COMPOSITIONS AND METHODS FOR TREATING SARCOMA” (MEDIMMUNE, LLC, priority 2013, published 2016).

Tests used:
[1] = test system: Akt phosphorylation; experiment: pAKT assay in sarcoma cells (MSD); format: cell-based; conditions: RD-ES, TC-71, SK-ES-1, and SJSA-1 cells
Procedure: (§1) When exogenous IGF-1 or IGF-2 was added to cells, there was an induction of phosphorylation of IGF-1R and IR-A in all cells examined.
(§2) The sarcoma lines were cultured overnight in complete medium. The following day, medium containing 0.1% charcoal stripped fetal bovine serum (FBS) was added to the cultures and the cultures incubated overnight. The next day, cells were treated with various treatments for 5 minutes. Media was removed; cells were washed and lysed with 1.0% Triton X lysis buffer with protease and phosphatase inhibitors. Approximately 8-20 μg of total protein was loaded on MSD 96-Well MULTI-SPOT plates and the level of total and phosphorylated IGF-1R, IR-A and IRS-1 protein was determined using the Insulin Signaling Panel (total protein) and Insulin Signaling Panel (phosphoprotein) Whole Cell Lysate kits according to the manufacturers protocol. The level of total and phosphorylated AKT was determined using the Phospho (Ser473)/Total AKT Assay Whole Cell Lysate kit according to manufacturer's standard protocol.

[2] = test system: clone P12 (P12) tumors; experiment: Growth of implanted tumors in mice; format: in vivo; conditions: P12 tumors overexpressing hIGF-1 and hIGF-1R
Excerpt: (§3) MEDI 573 selectively binds to human insulin-like growth factor (hIGF)-I and hIGF-2 and […]. MEDI-573 targets the IGF-1 and IGF-2 ligands and thereby inhibits IGF-mediated signal transduction. […] Furthermore, MEDI-573 has potential to achieve this without perturbing glucose homeostasis, which has been an adverse effect observed with investigational agents that target IGF 1R. The results of in vitro studies have shown that MEDI-573 inhibited both IGF-1 and IGF-2-stimulated phosphorylation of IGF 1R and that of downstream signaling proteins including Akt and MAPK in a number of engineered mouse embryonic fibroblast NIH-3T3 cell lines transfected to express human IGF-1R and either human IGF-1/-2. Furthermore, MEDI-573 inhibited autocrine phosphorylation of these signaling molecules.

[3] = test system: clone 32 (C32) tumors; experiment: Growth of implanted tumors in mice; format: in vivo; conditions: C32 tumors overexpressing hIGF II and hIGF-1R
Excerpt: as §3

[4] = test system: RD-ES cells; experiment: Cytotoxicity assay, MEDI-573 and mTOR inhibitors; format: cell-based; conditions: agents alone or in combination (FIG. 14)
[5] = test system: engineered NIH3T3 and human tumor cell lines; experiment: In vitro growth of engineered and tumor cell lines; format: cell-based
Excerpt: as §3

[6] = target: T1, human IGF-2 in KHOS/NP model (Homo sapiens, UniProt P01344); experiment: Free IGF ligands in xenograft tumors (ELISA); format: in vivo, mouse xenograft; conditions: up to 60 mg/kg
T1 construct: endogenous in cells; host or cells: KHOS/NP (osteosarcoma) xenograft tumors in athymic nude mice
Procedure: (§4) Free IGF ligands were measured in xenograft tumors in untreated mice and in mice treated with different amounts of MEDI-573. […] Despite KHOS cells being unresponsive to IGF-1 and/or IGF-2 stimulation, IGF-2 levels were examined in a KHOS/NP model.
(§5) Sarcoma cell lines were purchased from American type Culture Collection (Manassas, Va.). CellTiter-Glo reagents were obtained from Promega (Madison, Wis.). Whole cell lysate kits for pIGF-1R, pIR-A, and pAKT were purchased from Meso Scale Discovery (MSD; Rockville, Md.). ELISA kits for total IGF-1 and IGF-1R were purchased from R&D Systems (Minneapolis, Minn.). ELISA kits for total IGF-2 were purchased from Insight Genomics (Falls Church, Va.). An ELISA kit for detecting free IGF-1 and IGF-2 was developed in house. Human IGF-1 and IGF-2 were obtained from R&D Systems (Minneapolis, Minn.). Antibodies for detecting phospho-AKT, phospho-4EBP1, phospho-S6K, and GAPDH were from Cell Signaling Technology (Beverly, Mass.).

[7] = target: T2, IGF-2 in SJSA-1 tumors (Homo sapiens, UniProt P01344); experiment: Free IGF ligands in xenograft tumors (ELISA); format: in vivo, mouse xenograft; conditions: even at the lowest dose of 10 mg/kg
T2 construct: endogenous in cells; host or cells: SJSA-1 (osteosarcoma) xenograft tumors in athymic nude mice
Procedure: as §4, §5

[8] = test system: IR-A phosphorylation; experiment: pIR-A assay in sarcoma cells (MSD); format: cell-based
Procedure: as §1, §2

[9] = test system: TC-71 cells; experiment: Activation of caspase-3 and caspase-7; format: cell-based; conditions: increasing concentrations, 48 hours, compared to isotype control
Procedure: (§6) To evaluate the basis for the cytotoxic effect of MEDI-573 on RD-ES, TC-71, SJSA-1, and KHOS cells, cells were treated with increasing concentrations of MEDI-573 for 48 hours and analyzed by measuring the activation of caspase-3 and caspase-7. […] (Data not shown.)

[10] = test system: RD-ES cells; experiment: Activation of caspase-3 and caspase-7; format: cell-based; conditions: increasing concentrations, 48 hours, compared to isotype control
Procedure: as §6

[11] = test system: SJSA-1 cells; experiment: Activation of caspase-3 and caspase-7; format: cell-based; conditions: increasing concentrations, 48 hours, compared to isotype control
Procedure: as §6

[12] = test system: KHOS cells; experiment: Activation of caspase-3 and caspase-7; format: cell-based; conditions: increasing concentrations, 48 hours
Procedure: as §6

[13] = test system: IGF-1R phosphorylation; experiment: pIGF-1R assay in sarcoma cells (MSD); format: cell-based
Procedure: as §1, §2

[14] = test system: RD-ES (Ewing's sarcoma) xenografts; experiment: Xenograft efficacy study in mice; format: in vivo
Excerpt: Although proliferation of SK-ES-1 and SJCRH30 cells was inhibited by MEDI-573 in vitro in the absence of exogenous IGFs, the in vivo growth of these two models was not effected by MEDI-573 treatment.
The combination treatments were tolerated as no significant body weight loss was observed (FIG. 17B).
For in vivo efficacy studies, five million sarcoma cells in 50% matrigel were inoculated subcutaneously into each female athymic nude mice. When tumors reach approximately 150-200 mm^3, mice were randomly assigned into groups (10 mice per group). MEDI-573 was administrated intraperitoneally twice per week at indicated doses. The dose regimen for AZD2014 was oral once every day, for rapamycin was intraperitoneal injection every 3 days. Tumor volumes were measured twice weekly with calipers. Tumor growth inhibition was calculated on the last day of study relative to the initial and final mean tumor volume of the control group.

[15] = target: murine IGF-1 (Mus musculus, UniProt P05017); experiment: Binding affinity
[16] = RD-ES, TC-71, SK-ES-1, and SJSA-1 cells
[17] = pretreatment with MEDI-573, exogenous IGF-1 or IGF-2

T1 sequence (P01344 25-91): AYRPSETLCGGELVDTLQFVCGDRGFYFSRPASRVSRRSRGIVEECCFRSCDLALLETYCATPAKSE
T2 sequence (P01344 25-91): as above
murine IGF-1, sequence (P05017 1-118 limits assumed): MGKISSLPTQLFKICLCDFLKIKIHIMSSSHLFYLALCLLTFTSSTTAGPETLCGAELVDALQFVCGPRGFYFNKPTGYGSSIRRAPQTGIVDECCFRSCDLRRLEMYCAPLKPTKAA

B1: MEDI-573: fully human monoclonal IgG2 lambda antibody that binds IGF-2 with cross reactivity to IGF-1; hybridoma 7.159.2, ATCC PTA-7424 (antibody)
heavy: QVQLVQSGAEVKKPGASVKVSCKASGYTFTSYDINWVRQATGQGLEWMGWMNPNSGNTGYAQKFQGRVTMTRNTSISTAYMELSSLRSEDTAVYYCARDPYYYYYGMDVWGQGTTVTVSSASTKGPSVFPLAPCSRSTSESTAALGCLVKDYFPEPVTVSWNSGALTSGVHTFPAVLQSSGLYSLSSVVTVPSSNFGTQTYTCNVDHKPSNTKVDKTVERKCCVECPPCPAPPVAGPSVFLFPPKPKDTLMISRTPEVTCVVVDVSHEDPEVQFNWYVDGVEVHNAKTKPREEQFNSTFRVVSVLTVVHQDWLNGKEYKCKVSNKGLPAPIEKTISKTKGQPREPQVYTLPPSREEMTKNQVSLTCLVKGFYPSDIAVEWESNGQPENNYKTTPPMLDSDGSFFLYSKLTVDKSRWQQGNVFSCSVMHEALHNHYTQKSLSLSPGK
light: QSVLTQPPSVSAAPGQKVTISCSGSSSNIENNHVSWYQQLPGTAPKLLIYDNNKRPSGIPDRFSGSKSGTSATLGITGLQTGDEADYYCETWDTSLSAGRVFGGGTKLTVLGQPKAAPSVTLFPPSSEELQANKATLVCLISDFYPGAVTVAWKADSSPVKAGVETTTPSKQSNNKYAASSYLSLTPEQWKSHRSYSCQVTHEGSTVEKTVAPTECS
[1]
  IGF-1 and IGF-2 stimulated phosphorylation of Akt: blocks this effect
  autophosphorylation of Akt: inhibited autophosphorylation
[2]
  growth of implanted tumors: significantly inhibited the growth
[3]
  growth of implanted tumors: significantly inhibited the growth
[4]
  decrease in cell viability: 56%
[5]
  growth in vitro: effectively inhibited the growth
[6]
  human IGF-2 levels in tumors: Dose-dependent inhibition
[7]
  free IGF-2 in tumors: almost completely neutralized
[8]; KHOS cells
  autophosphorylation of IR-A: not in KHOS cells
[8]; [16]
  autophosphorylation of IR-A: inhibited autophosphorylation
[8]; [17]
  IGF-1/-2-induced activation of IR-A: inhibited
[9]
  caspase-3/-7 activities: increased caspase-3/-7 activities in a dose-dependent manner
[10]
  caspase-3/-7 activities: increased caspase-3/-7 activities in a dose-dependent manner
[11]
  caspase-3/-7 activities: increased caspase-3/-7 activities in a dose-dependent manner
[12]
  caspase-3/-7 activities: No activation of caspase-3/-7 was detected
[13]; [16]
  autophosphorylation of IGF-1R: inhibited autophosphorylation
[13]; [17]
  IGF-1/-2-induced activation of IGF-1R: inhibited
[14]; RD-ES xenograft model, AZD2014 combination study (FIG. 16A)
  tumor growth inhibition: 52%
[14]; RD-ES xenograft model, rapamycin combination study (FIG. 17A)
  tumor growth inhibition: 59%
[14]; RD-ES xenografts, 10 mg/kg twice weekly intraperitoneally
  tumor growth inhibition: 25%
[14]; RD-ES xenografts, 30 mg/kg twice weekly intraperitoneally
  tumor growth inhibition: 44%
[14]; RD-ES xenografts, 60 mg/kg twice weekly intraperitoneally
  tumor growth inhibition: 52%
[15]
  binding affinity: low binding affinity
